Measurements from the supplement of paper PMC9112550, “Optimization of the antimicrobial peptide Bac7 by deep mutational scanning” (BMC Biology, 2022).

test system: Escherichia coli TOP10; experiment: shrunken log2 fold change of peptide-encoding DNA abundance (4.5 h post-induction vs induction); higher = less antimicrobial activity (less host growth inhibition); details: time post-induction: 4.5 h; library: site-saturation at positions 5, 18, 19, 20
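Also: peptides expressed intracellularly from a pBAD plasmid library in pooled LB shake-flask culture, induced with 0.3% L-arabinose, DNA abundance read by NGS, three biological replicates, DESeq2 with apeglm shrinkage.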

| Sequence | shrunken log2 fold change |
| --- | --- |
| RRIRWRPPRLPRPRPRPDTMPRP | 0.19 |
| RRIRKRPPRLPRPRPRPNQYPRP | -0.0702 |
| RRIRSRPPRLPRPRPRPVCDPRP | 0.327 |
| RRIRARPPRLPRPRPRPTSWPRP | 0.756 |
| RRIRLRPPRLPRPRPRPCQFPRP | -0.0181 |
| RRIRVRPPRLPRPRPRPCPMPRP | -0.0643 |
| RRIRWRPPRLPRPRPRPIKNPRP | 0.136 |
| RRIRHRPPRLPRPRPRPIPCPRP | -0.0558 |
| RRIRPRPPRLPRPRPRPHMMPRP | -0.19 |
| RRIRVRPPRLPRPRPRPDKKPRP | 0.135 |
| RRIRKRPPRLPRPRPRPFEVPRP | -0.0185 |
| RRIRFRPPRLPRPRPRPIFFPRP | -0.137 |
| RRIRWRPPRLPRPRPRPMLCPRP | 0.216 |
| RRIRERPPRLPRPRPRPNCMPRP | -0.526 |
| RRIRLRPPRLPRPRPRPICFPRP | 0.104 |
| RRIRRRPPRLPRPRPRPSEAPRP | -0.0295 |
| RRIRGRPPRLPRPRPRPHWAPRP | 0.362 |
| RRIRFRPPRLPRPRPRPHLQPRP | -0.144 |
| RRIRMRPPRLPRPRPRPGHSPRP | 0.182 |
| RRIRHRPPRLPRPRPRPCNEPRP | -0.00194 |
| RRIRPRPPRLPRPRPRPNVGPRP | 0.0392 |
| RRIRVRPPRLPRPRPRPAPHPRP | 0.286 |

| Sequence | shrunken log2 fold change |
| --- | --- |
| RRIRRRPPRLPRPRPRPRSHPRP | -0.033 |
| RRIRGRPPRLPRPRPRPEWAPRP | 1.07 |
| RRIRPRPPRLPRPRPRPFAPPRP | 0.14 |
| RRIRWRPPRLPRPRPRPSDHPRP | -0.474 |
| RRIRMRPPRLPRPRPRPGPQPRP | 1.21 |
| RRIRRRPPRLPRPRPRPACDPRP | 0.539 |
| RRIRHRPPRLPRPRPRPQLMPRP | -0.351 |
| RRIRPRPPRLPRPRPRPKMKPRP | 1.05 |
| RRIRHRPPRLPRPRPRPTGLPRP | -0.515 |
| RRIRNRPPRLPRPRPRPQQEPRP | -0.124 |
| RRIRIRPPRLPRPRPRPGVSPRP | -0.351 |
| RRIRLRPPRLPRPRPRPTCDPRP | -0.202 |
| RRIRHRPPRLPRPRPRPDGFPRP | -0.015 |
| RRIRSRPPRLPRPRPRPWEHPRP | 0.089 |
| RRIRVRPPRLPRPRPRPCEDPRP | -0.0254 |
| RRIRSRPPRLPRPRPRPRIFPRP | 0.206 |
| RRIRTRPPRLPRPRPRPRNIPRP | -0.623 |
| RRIRERPPRLPRPRPRPNSQPRP | -0.389 |
| RRIRMRPPRLPRPRPRPNCVPRP | -0.00674 |
| RRIRKRPPRLPRPRPRPDHEPRP | -0.013 |
| RRIRPRPPRLPRPRPRPKHWPRP | 0.273 |
| RRIRGRPPRLPRPRPRPFHFPRP | 0.119 |

| Sequence | shrunken log2 fold change |
| --- | --- |
| RRIRNRPPRLPRPRPRPWDQPRP | 0.0603 |
| RRIRIRPPRLPRPRPRPKFLPRP | -0.537 |
| RRIRMRPPRLPRPRPRPPWTPRP | 1.15 |
| RRIRCRPPRLPRPRPRPNCCPRP | 0.188 |
| RRIRVRPPRLPRPRPRPTCHPRP | -0.0606 |
| RRIRRRPPRLPRPRPRPRREPRP | 0.435 |
| RRIRTRPPRLPRPRPRPFGIPRP | -0.338 |
| RRIRMRPPRLPRPRPRPFGCPRP | 0.254 |
| RRIRLRPPRLPRPRPRPTATPRP | 0.817 |
| RRIRHRPPRLPRPRPRPSKGPRP | -0.149 |
| RRIRCRPPRLPRPRPRPQRMPRP | -0.0914 |
| RRIRERPPRLPRPRPRPTCSPRP | -0.397 |
| RRIRFRPPRLPRPRPRPHHVPRP | -0.323 |
| RRIRFRPPRLPRPRPRPHQCPRP | -0.315 |
| RRIRLRPPRLPRPRPRPAREPRP | 0.678 |
| RRIRGRPPRLPRPRPRPANQPRP | 0.329 |
| RRIRLRPPRLPRPRPRPYDWPRP | -0.218 |
| RRIRHRPPRLPRPRPRPTFDPRP | 0.0575 |
| RRIRSRPPRLPRPRPRPHWMPRP | 0.0168 |
| RRIRLRPPRLPRPRPRPAMYPRP | -0.139 |
| RRIRHRPPRLPRPRPRPKSCPRP | -0.0344 |
| RRIRSRPPRLPRPRPRPAPRPRP | 0.845 |

| Sequence | shrunken log2 fold change |
| --- | --- |
| RRIRFRPPRLPRPRPRPVRCPRP | 0.308 |
| RRIRWRPPRLPRPRPRPYDWPRP | -0.0803 |
| RRIRCRPPRLPRPRPRPRNDPRP | -0.191 |
| RRIRSRPPRLPRPRPRPQASPRP | 0.552 |
| RRIRDRPPRLPRPRPRPFWAPRP | 0.141 |
| RRIRMRPPRLPRPRPRPMGPPRP | 0.168 |
| RRIRWRPPRLPRPRPRPDIVPRP | 0.469 |
| RRIRDRPPRLPRPRPRPHARPRP | 0.0493 |
| RRIRDRPPRLPRPRPRPLMRPRP | 0.665 |
| RRIRGRPPRLPRPRPRPYVPPRP | -0.529 |
| RRIRKRPPRLPRPRPRPQDCPRP | -0.104 |
| RRIRERPPRLPRPRPRPADCPRP | 0.0519 |
| RRIRFRPPRLPRPRPRPNRGPRP | 0.149 |
| RRIRARPPRLPRPRPRPNDNPRP | -0.344 |
| RRIRFRPPRLPRPRPRPPTAPRP | 0.429 |
| RRIRYRPPRLPRPRPRPIVPPRP | 0.0202 |
| RRIRIRPPRLPRPRPRPKKGPRP | -0.252 |
| RRIRRRPPRLPRPRPRPRDKPRP | 0.126 |
| RRIRGRPPRLPRPRPRPPASPRP | 1.07 |
| RRIRCRPPRLPRPRPRPMINPRP | -0.53 |
| RRIRLRPPRLPRPRPRPKLQPRP | 0.356 |
| RRIRVRPPRLPRPRPRPVVAPRP | 0.17 |

| Sequence | shrunken log2 fold change |
| --- | --- |
| RRIRFRPPRLPRPRPRPSGHPRP | -0.212 |
| RRIRARPPRLPRPRPRPSFRPRP | -0.262 |
| RRIRGRPPRLPRPRPRPTRRPRP | 0.663 |
| RRIRRRPPRLPRPRPRPLCGPRP | 0.0348 |
| RRIRERPPRLPRPRPRPYIMPRP | -0.542 |
| RRIRMRPPRLPRPRPRPNRCPRP | 0.172 |
| RRIRDRPPRLPRPRPRPTDFPRP | -0.0352 |
| RRIRYRPPRLPRPRPRPNISPRP | -0.513 |
| RRIRFRPPRLPRPRPRPIMTPRP | -0.368 |
| RRIRKRPPRLPRPRPRPESSPRP | -0.000321 |
| RRIRMRPPRLPRPRPRPGRPPRP | 0.383 |
| RRIRSRPPRLPRPRPRPLHYPRP | -0.908 |
| RRIRSRPPRLPRPRPRPGLKPRP | 0.14 |
| RRIRCRPPRLPRPRPRPQMGPRP | -0.273 |
| RRIRERPPRLPRPRPRPYTTPRP | -0.49 |
| RRIRFRPPRLPRPRPRPSFRPRP | -0.433 |
| RRIRHRPPRLPRPRPRPPDKPRP | -0.112 |
| RRIRSRPPRLPRPRPRPMWTPRP | -0.0682 |
| RRIRDRPPRLPRPRPRPKFLPRP | -0.241 |
| RRIRRRPPRLPRPRPRPWADPRP | -0.143 |
| RRIRSRPPRLPRPRPRPNPHPRP | -0.139 |
